Paper PMC2907309

Molecular target: MazF (E. coli) (UniProt P0AE70)
UniProt P0AE70, sequence (P0AE70 whole entry): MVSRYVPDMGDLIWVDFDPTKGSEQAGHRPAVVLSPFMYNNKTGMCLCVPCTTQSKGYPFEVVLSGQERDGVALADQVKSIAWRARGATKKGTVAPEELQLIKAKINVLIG

“His-MazE (from UniProt P0AE72 1-82) (natural protein)” gave a recovery of Luc production (end-point) in a cell-free reaction made of MazF crude extract, against the concentration of pure MazE added of 0.6 µM and a recovery of deGFP production (end-point) in a cell-free reaction made of MazF crude extract, against the concentration of pure MazE added of 0.4 µM.
